B1: LINE1-mini (parent)
chain: GGCAGAGCUCAACACAGCGUGGCAAAGUGGCUGUGGCUAGACUGCC

The results in this text go back to the RNAGym collection of RNA variant scans (doi:10.7554/elife.90254).

The variants in the data set derive from B1. The data set can be described thus: self-cleavage, relative activity (ratio to wild type); higher = more cleavage; in vitro, sequencing; the parent is a self-cleaving ribozyme.
As for GGCAGAGCUGAACACAGCGUGGCAAAGUGGCUGUGGCUAGACGGCC [C10G U43G], the self-cleavage came to 0.02.

As for GGCAGAGCUGAACACAGCGUGGCAAAGUGGCUGUGGCUAGACAGCC [C10G U43A], the self-cleavage is 0.01.

For GGCAGAGCUGAACACAGCGUGGCAAAGUGGCUGUGGCUAGACCGCC [C10G U43C], the self-cleavage turned out to be 0.02.

Regarding GGCAGAGCUGAACUCAGCGUGGCAAAGUGGCUGUGGCUAGACUGCC [C10G A14U], the self-cleavage came to 0.05.

Turning to GGCAGAGCUGAACGCAGCGUGGCAAAGUGGCUGUGGCUAGACUGCC [C10G A14G], the self-cleavage was 0.09.

With GGCAGAGCUGAACCCAGCGUGGCAAAGUGGCUGUGGCUAGACUGCC [C10G A14C], the self-cleavage was found to be 0.04.

On to GGCAGAGCUGAACACAGCGUGGCAAAGGGGCUGUGGCUAGACUGCC [C10G U28G], for which the self-cleavage turned out to be 0.08.

As for GGCAGAGCUGAACACAGCGUGGCAAAGAGGCUGUGGCUAGACUGCC [C10G U28A], the self-cleavage was 0.11.

As for GGCAGAGCUGAACACAGCGUGGCAAAGCGGCUGUGGCUAGACUGCC [C10G U28C], the self-cleavage is 0.12.

Turning to GGCAGAGCUUAACCCAGCGUGGCAAAGUGGCUGUGGCUAGACUGCC [C10U A14C], the self-cleavage was 0.05.

As for GGCAGAGCUUCACACAGCGUGGCAAAGUGGCUGUGGCUAGACUGCC [C10U A11C], the self-cleavage worked out at 0.05.

As for GGCAGAGCUUUACACAGCGUGGCAAAGUGGCUGUGGCUAGACUGCC [C10U A11U], the self-cleavage amounted to 0.09.

For GGCAGAGCUUGACACAGCGUGGCAAAGUGGCUGUGGCUAGACUGCC [C10U A11G], the self-cleavage was determined as 0.05.

In the case of GGCAGAGCUGAACACAGCGUGGCAAAGUGGCUGUGGCUAGACUGCG [C10G C46G], the self-cleavage worked out at 0.05.

Turning to GGCAGAGCUGAACACAGCGUGGCAAAGUGGCUGUGGCUAGACUGCU [C10G C46U], the self-cleavage is 0.06.

GGCAGAGCUGAACACAGCGUGGCAAAGUGGCUGUGGCUAGACUGCA [C10G C46A]: the self-cleavage stood at 0.09.

Regarding GGCAGAGCUGAACACAGCGUGGCAAAGUGGCUGUGGCUAUACUGCC [C10G G40U], the self-cleavage is 0.02.

Consider GGCAGAGCUGAACACAGCGUGGCAAAGUGGCUGUGGCUACACUGCC [C10G G40C], for which the self-cleavage was 0.02.

GGCAGAGCUGAACACAGCGUGGCAAAGUGGCUGUGGCUAAACUGCC [C10G G40A]: the self-cleavage stood at 0.01.

As to GGCAGAGCUGAACACCGCGUGGCAAAGUGGCUGUGGCUAGACUGCC [C10G A16C], the self-cleavage was determined as 0.02.

As for GGCAGAGCUGAACACGGCGUGGCAAAGUGGCUGUGGCUAGACUGCC [C10G A16G], the self-cleavage worked out at 0.06.

In the case of GGCAGAGCUGAACACUGCGUGGCAAAGUGGCUGUGGCUAGACUGCC [C10G A16U], the self-cleavage was 0.06.

Turning to GGCAGAGCUGAACACAACGUGGCAAAGUGGCUGUGGCUAGACUGCC [C10G G17A], the self-cleavage is 0.16.

On to GGCAGAGCUGAACACACCGUGGCAAAGUGGCUGUGGCUAGACUGCC [C10G G17C], for which the self-cleavage came out at 0.23.

As to GGCAGAGCUGAACACAUCGUGGCAAAGUGGCUGUGGCUAGACUGCC [C10G G17U], the self-cleavage was 0.07.

Consider GGCAGAGCUGAACACAGCGUGUCAAAGUGGCUGUGGCUAGACUGCC [C10G G22U], for which the self-cleavage worked out at 0.11.

Consider GGCAGAGCUGAACACAGCGUGACAAAGUGGCUGUGGCUAGACUGCC [C10G G22A], for which the self-cleavage worked out at 0.13.

Take GGCAGAGCUGAACACAGCGUGCCAAAGUGGCUGUGGCUAGACUGCC [C10G G22C]: the self-cleavage turned out to be 0.12.

On to GGCAGAGCUGAACACAGCGUGGCAAAUUGGCUGUGGCUAGACUGCC [C10G G27U], for which the self-cleavage was 0.08.

For GGCAGAGCUGAACACAGCGUGGCAAAAUGGCUGUGGCUAGACUGCC [C10G G27A], the self-cleavage was found to be 0.14.

Take GGCAGAGCUGAACACAGCGUGGCAAACUGGCUGUGGCUAGACUGCC [C10G G27C]: the self-cleavage stood at 0.09.

Take GGCAGAGCUGAACACAGCGUGGCAAAGUGGCUGUGGAUAGACUGCC [C10G C37A]: the self-cleavage was 0.01.

In the case of GGCAGAGCUGAACACAGCGUGGCAAAGUGGCUGUGGGUAGACUGCC [C10G C37G], the self-cleavage came out at 0.01.

Turning to GGCAGAGCUGAACACAGCGUGGCAAAGUGGCUGUGGUUAGACUGCC [C10G C37U], the self-cleavage came out at 0.01.

As for GGCAGAGCUGAACACAGCGUGGGAAAGUGGCUGUGGCUAGACUGCC [C10G C23G], the self-cleavage worked out at 0.07.

On to GGCAGAGCUGAACACAGCGUGGAAAAGUGGCUGUGGCUAGACUGCC [C10G C23A], for which the self-cleavage is 0.08.

For GGCAGAGCUGAACACAGCGUGGUAAAGUGGCUGUGGCUAGACUGCC [C10G C23U], the self-cleavage is 0.09.

Regarding GGCAGAGCUGAACACAGCGUGGCAGAGUGGCUGUGGCUAGACUGCC [C10G A25G], the self-cleavage stood at 0.08.

Consider GGCAGAGCUGAACACAGCGUGGCAUAGUGGCUGUGGCUAGACUGCC [C10G A25U], for which the self-cleavage came out at 0.1.

For the variant GGCAGAGCUGAACACAGCGUGGCACAGUGGCUGUGGCUAGACUGCC [C10G A25C], the self-cleavage is 0.1.

Regarding GGCAGAGCUGAAAACAGCGUGGCAAAGUGGCUGUGGCUAGACUGCC [C10G C13A], the self-cleavage came to 0.03.

Regarding GGCAGAGCUGAAUACAGCGUGGCAAAGUGGCUGUGGCUAGACUGCC [C10G C13U], the self-cleavage worked out at 0.04.

Consider GGCAGAGCUGAAGACAGCGUGGCAAAGUGGCUGUGGCUAGACUGCC [C10G C13G], for which the self-cleavage was 0.08.

As for GGCAGAGCUGAACACAGCGUGGCAAAGUGGCUAUGGCUAGACUGCC [C10G G33A], the self-cleavage was 0.03.

Take GGCAGAGCUGAACACAGCGUGGCAAAGUGGCUCUGGCUAGACUGCC [C10G G33C]: the self-cleavage came out at 0.02.

With GGCAGAGCUGAACACAGCGUGGCAAAGUGGCUUUGGCUAGACUGCC [C10G G33U], the self-cleavage was determined as 0.02.

Regarding GGCAGAGCUGAACACAGCGUGGCAAAGUGGCUGGGGCUAGACUGCC [C10G U34G], the self-cleavage was determined as 0.03.

With GGCAGAGCUGAACACAGCGUGGCAAAGUGGCUGCGGCUAGACUGCC [C10G U34C], the self-cleavage was determined as 0.04.

As for GGCAGAGCUGAACACAGCGUGGCAAAGUGGCUGAGGCUAGACUGCC [C10G U34A], the self-cleavage was 0.03.

Turning to GGCAGAGCUGAACACAGCGGGGCAAAGUGGCUGUGGCUAGACUGCC [C10G U20G], the self-cleavage was 0.05.

Turning to GGCAGAGCUGAACACAGCGCGGCAAAGUGGCUGUGGCUAGACUGCC [C10G U20C], the self-cleavage was 0.07.

GGCAGAGCUGAACACAGCGAGGCAAAGUGGCUGUGGCUAGACUGCC [C10G U20A]: the self-cleavage was 0.06.

For GGCAGAGCUGAACACAGCGUGGCAAGGUGGCUGUGGCUAGACUGCC [C10G A26G], the self-cleavage came out at 0.12.

As to GGCAGAGCUGAACACAGCGUGGCAACGUGGCUGUGGCUAGACUGCC [C10G A26C], the self-cleavage turned out to be 0.11.

Regarding GGCAGAGCUGAACACAGCGUGGCAAUGUGGCUGUGGCUAGACUGCC [C10G A26U], the self-cleavage was determined as 0.15.

On to GGCAGAGCUGAACACAGCGUGGCAAAGUGGCUGUGCCUAGACUGCC [C10G G36C], for which the self-cleavage amounted to 0.03.
